Like-named read-outs stand apart in the source and are kept apart here.

Assay [1] addresses T1, FcgRIIIa F (human, UniProt P08637 17-208).
T1 construct: extracellular domain; also called FcγRIIIa F; not shown: His tag attached to the C terminus
The experiment in a line: SPR (Biacore), antibody captured on chip, FcgR extracellular domain as analyte.

Assay [2] has as its target T2, FcgRIIa H (human, UniProt P12318 34-217).
T2 construct: extracellular domain; also called FcγRIIa H; FcγRIIa type H; not shown: His tag attached to the C terminus
T2 sequence (looked up): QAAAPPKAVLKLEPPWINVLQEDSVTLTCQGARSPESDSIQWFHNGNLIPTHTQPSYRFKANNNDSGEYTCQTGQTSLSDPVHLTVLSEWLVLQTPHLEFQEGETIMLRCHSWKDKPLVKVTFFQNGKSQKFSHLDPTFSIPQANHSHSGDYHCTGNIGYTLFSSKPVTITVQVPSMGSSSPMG
The assay is described as above.

The target in assay [3] is T3, FcgRIa (human, UniProt P12314 16-292).
T3 construct: extracellular domain; Expressed in FreeStyle293 cells and purified; used as analyte in Biacore; also called FcγRIa; FcγRI; not shown: His tag attached to the C terminus
Described as above.
T3 sequence (P12314 16-292): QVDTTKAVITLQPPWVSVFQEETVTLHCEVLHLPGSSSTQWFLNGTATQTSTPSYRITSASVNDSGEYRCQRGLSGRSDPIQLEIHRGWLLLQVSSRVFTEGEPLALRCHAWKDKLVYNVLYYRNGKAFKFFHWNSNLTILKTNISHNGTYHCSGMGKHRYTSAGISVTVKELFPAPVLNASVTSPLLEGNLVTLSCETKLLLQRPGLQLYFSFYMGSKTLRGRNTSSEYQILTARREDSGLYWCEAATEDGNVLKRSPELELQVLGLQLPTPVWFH

Assay [4] concerns the target T4, FcgRIIa R (human, UniProt P12318 34-217).
T4 construct: extracellular domain; also called FcγRIIa R; FcγRIIa type R; not shown: His tag attached to the C terminus
T4 sequence (looked up): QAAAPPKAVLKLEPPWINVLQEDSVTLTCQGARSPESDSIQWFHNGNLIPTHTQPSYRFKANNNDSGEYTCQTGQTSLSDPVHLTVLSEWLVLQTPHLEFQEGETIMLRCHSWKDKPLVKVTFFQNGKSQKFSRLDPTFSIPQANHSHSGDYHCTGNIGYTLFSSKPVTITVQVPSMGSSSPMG
The description is as above.

Assay [5] concerns the target T5, FcgRIIb (human, UniProt P31994 43-217).
T5 construct: extracellular domain; Expressed in FreeStyle293 cells and purified; used as analyte in Biacore; also called FcγRIIb; CD32B; not shown: His tag attached to the C terminus
T5 sequence (looked up): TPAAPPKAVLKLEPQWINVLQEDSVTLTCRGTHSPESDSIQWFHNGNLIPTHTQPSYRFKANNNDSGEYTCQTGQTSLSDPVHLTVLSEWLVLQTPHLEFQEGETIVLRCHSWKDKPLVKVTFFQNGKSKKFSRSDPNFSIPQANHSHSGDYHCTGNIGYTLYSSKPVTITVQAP
The description is as above.

The target of assay [6] is T6, FcgRIIIa V (human, UniProt P08637 17-208).
T6 construct: extracellular domain; also called FcγRIIIa V; not shown: His tag attached to the C terminus
T6 sequence (P08637 17-208 F176V limits assumed): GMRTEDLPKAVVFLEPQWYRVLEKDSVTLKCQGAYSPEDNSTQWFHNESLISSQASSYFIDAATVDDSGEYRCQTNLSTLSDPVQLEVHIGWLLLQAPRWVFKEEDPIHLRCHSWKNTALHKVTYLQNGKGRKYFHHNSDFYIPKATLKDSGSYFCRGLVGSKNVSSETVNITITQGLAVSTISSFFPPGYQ
Described as above.

The target of assay [7] is T1, FcgRIIIa F. The description is as above. On the procedure:
(§1) Analysis of interaction between obj ective antibody and the FcγR was carried out using Biacore T100 (GE Healthcare), Biacore T200, Biacore A100, and Biacore 4000. HBS-EP+ (GE Healthcare) was used as the running buffer, and the measurement temperature was set to 25° C. Chips produced by immobilizing the antigen peptide by the amine coupling method to a Series S sensor Chip CM5 (GE Healthcare), chips produced by allowing preliminarily biotinylated antigen peptides to interact with and immobilize onto a Series S Sensor Chip SA (certified) (GE Healthcare), chips produced by immobilizing Protein L (ACTIGEN, BioVision) to Series S Sencor Chip CM5 (GE Healthcare), or chips produced by immobilizing Protein A/G (Thermo Scientific) to Series S Sencor Chip CM5 (GE Healthcare) were used. Antibodies of interest were captured onto these chips, and allowed to interact to each FcγR diluted with running buffer. To regenerate and repeatedly use the chip, the antibodies captured onto the chip were washed off by reacting 10 mM glycine-HCl, pH 1.5.
This is another data set of the same source.

For assay [8], the target named is T2, FcgRIIa H. The description is as above. On the procedure: as §1
This is another data set of the same source.

Assay [9] concerns the target T3, FcgRIa. The description is as above. On the procedure:
as §1
The source holds these as a separate data set.

Assay [10] deals with T4, FcgRIIa R. The assay is described as above. On the procedure: as §1
This is another data set of the same source.

Assay [11] deals with T5, FcgRIIb. Described as above. The procedure:
as §1
The source holds these as a separate data set.

Assay [12] has as its target T6, FcgRIIIa V. The description is as above. The procedure:
as §1
The source holds these as a separate data set.

The target in assay [13] is T7, FcgRIIaR (human, UniProt P12318 34-217).
T7 construct: extracellular domain; R131 allotype; also called FcγRIIa R; FcgRIIa type R; not shown: C-terminal His tag
T7 sequence (looked up): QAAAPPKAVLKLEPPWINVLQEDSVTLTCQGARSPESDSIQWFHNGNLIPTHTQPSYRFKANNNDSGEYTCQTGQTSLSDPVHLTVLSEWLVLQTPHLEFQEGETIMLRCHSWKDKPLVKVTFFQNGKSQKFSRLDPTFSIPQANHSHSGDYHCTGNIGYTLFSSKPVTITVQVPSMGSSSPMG
The assay is described as follows: SPR (Biacore); KD of H240-Kn120/H240-Hl068/L73-k0 divided by KD of the sample. The procedure: (§2) The variants described above were assessed for their binding to FcgR according to the method described in Reference Example 8.
as §1
On the technique in general: SPR reads the build-up and loss of mass on a sensor chip optically.

In assay [14] the target is T8, FcgRIIb (human, UniProt P31994 43-217).
T8 construct: extracellular domain; also called FcγRIIb; CD32B; not shown: C-terminal His tag
T8 sequence (looked up): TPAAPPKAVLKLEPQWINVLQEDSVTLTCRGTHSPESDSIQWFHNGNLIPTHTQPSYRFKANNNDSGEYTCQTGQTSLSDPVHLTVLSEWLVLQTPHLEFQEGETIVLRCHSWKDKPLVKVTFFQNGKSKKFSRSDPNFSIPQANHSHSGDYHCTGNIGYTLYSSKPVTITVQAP
The description is as above. The procedure: as §2, §1

Assay [15] addresses T9, FcgRIIaH (human, UniProt P12318 34-217).
T9 construct: extracellular domain; H131 allotype; also called FcγRIIa H; FcgRIIa type H; not shown: C-terminal His tag
T9 sequence (looked up): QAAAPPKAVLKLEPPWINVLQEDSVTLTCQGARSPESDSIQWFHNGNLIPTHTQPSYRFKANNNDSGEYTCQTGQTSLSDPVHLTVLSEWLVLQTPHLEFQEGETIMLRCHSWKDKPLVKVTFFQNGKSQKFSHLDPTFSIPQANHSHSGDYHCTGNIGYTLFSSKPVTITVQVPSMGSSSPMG
The description is as above. The procedure:
as §2, §1

The target in assay [16] is T10, FcgRIIIaV (human, UniProt P08637 17-208).
T10 construct: extracellular domain; V158 allotype; also called FcγRIIIa V; not shown: C-terminal His tag
T10 sequence (P08637 17-208 F176V limits assumed): as the sequence (P08637 17-208 F176V limits assumed) above
The assay is described as above. The procedure: as §2, §1

For assay [17], the target named is T11, FcgRIIIaF (human, UniProt P08637 17-208).
T11 construct: extracellular domain; F158 allotype; also called FcγRIIIa F; not shown: C-terminal His tag
T11 sequence (P08637 17-208): as the sequence (P08637 17-208 F176V limits assumed) above, with V160F counted along it
The description is as above. The procedure:
as §2, §1

Assay [18] concerns the target T7, FcgRIIaR. The experiment in a line: SPR (Biacore), antibody captured on chip, FcgR as analyte. On the procedure:
as §2, §1

For assay [19], the target named is T8, FcgRIIb. Described as above. On the procedure: as §2, §1
Assay [20] has as its target T9, FcgRIIaH. Described as above. On the procedure:
as §2, §1

Assay [21] deals with T12, FcgRIa (human, UniProt P12314 16-292).
T12 construct: extracellular domain; also called FcγRIa; FcγRI; not shown: C-terminal His tag
Described as above. The procedure:
as §2, §1
T12 sequence (P12314 16-292): as the sequence (P12314 16-292) above

Assay [22] addresses T10, FcgRIIIaV. The assay is described as above. The procedure:
as §2, §1

For assay [23], the target named is T11, FcgRIIIaF. Described as above. The procedure: as §2, §1

T1 sequence (P08637 17-208): as the sequence (P08637 17-208 F176V limits assumed) above, with V160F counted along it

B1: H240-G1d/L73-k0 (antibody, human IgG1, kappa)
heavy: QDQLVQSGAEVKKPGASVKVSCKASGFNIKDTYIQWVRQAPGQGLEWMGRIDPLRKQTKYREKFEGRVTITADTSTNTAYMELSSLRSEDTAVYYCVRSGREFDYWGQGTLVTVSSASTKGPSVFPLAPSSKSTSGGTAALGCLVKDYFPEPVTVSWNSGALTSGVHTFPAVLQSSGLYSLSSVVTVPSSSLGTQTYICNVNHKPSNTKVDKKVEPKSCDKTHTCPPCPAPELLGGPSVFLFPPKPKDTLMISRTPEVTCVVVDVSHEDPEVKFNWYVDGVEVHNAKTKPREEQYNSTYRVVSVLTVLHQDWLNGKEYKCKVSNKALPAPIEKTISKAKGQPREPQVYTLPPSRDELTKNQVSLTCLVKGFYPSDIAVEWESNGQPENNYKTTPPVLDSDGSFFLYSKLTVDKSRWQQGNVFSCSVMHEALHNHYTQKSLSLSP
light: DIQMTQSPSSLSASVGDRVTITCRASQDIHKYIAWYQQKPGQAPRLLIQYTSTLQPGVPSRFSGSGSGTDYTFTISSLQPEDIATYYCLQYEQLRTFGGGTKVEIKRTVAAPSVFIFPPSDEQLKSGTASVVCLLNNFYPREAKVQWKVDNALQSGNSQESVTEQDSKDSTYSLSSTLTLSKADYEKHKVYACEVTHQGLSSPVTKSFNRGEC
notes: Anti-EREG native IgG1 (G1d constant region lacks the C-terminal Gly and Lys); also called native IgG1
B1: the Kd (usually the free concentration of one partner at which half of the binding sites on the other are occupied at equilibrium, for simple one-to-one binding) in the assay with FcgRIIIa F [1] came out at 1400 nM; with FcgRIIa H [2], 660 nM; with FcgRIa [3], 0.23 nM; with FcgRIIa R [4] it was 880 nM; with FcgRIIb [5] it was 6000 nM; with FcgRIIIa V [6] it was 310 nM. For the same molecule, the Kd stood at 1400 nM with FcgRIIIa F [7]; 660 nM with FcgRIIa H [8]; 0.23 nM with FcgRIa [9]; 880 nM in the assay with FcgRIIa R [10]; 6100 nM in the assay with FcgRIIb [11]; 310 nM with FcgRIIIa V [12].

B2: H240-Kn120/H240-Hl085/L73-k0 (antibody, human IgG1, kappa)
heavy 1: QDQLVQSGAEVKKPGASVKVSCKASGFNIKDTYIQWVRQAPGQGLEWMGRIDPLRKQTKYREKFEGRVTITADTSTNTAYMELSSLRSEDTAVYYCVRSGREFDYWGQGTLVTVSSASTKGPSVFPLAPSSKSTSGGTAALGCLVKDYFPEPVTVSWNSGALTSGVHTFPAVLQSSGLYSLSSVVTVPSSSLGTQTYICNVNHKPSNTKVDKKVEPKSCDKTHTCPPCPAPEYYWGPMVFLFPPKPKDTLMISRTPEVTCVVVDVSDEDPEVKFNWYVDGVEVHNAKTKPREEQYNATYRVVSVLTVLHQDWLNGKEYKCKVSNKDLPAPIEKTISKAKGQPREPQVCTLPPSRDELTKNQVSLWCLVKGFYPSDIAVEWESNGQPENNYKTTPPVLDSDGSFFLYSKLTVDKSRWQQGNVFSCSVMHEALHNHYTQKSLSLSP
heavy 2: QDQLVQSGAEVKKPGASVKVSCKASGFNIKDTYIQWVRQAPGQGLEWMGRIDPLRKQTKYREKFEGRVTITADTSTNTAYMELSSLRSEDTAVYYCVRSGREFDYWGQGTLVTVSSASTKGPSVFPLAPSSKSTSGGTAALGCLVKDYFPEPVTVSWNSGALTSGVHTFPAVLQSSGLYSLSSVVTVPSSSLGTQTYICNVNHKPSNTKVDKKVEPKSCDKTHTCPPCPAPELLVGPSVFLFPPKPKDTLMISRTPEVTCVVVDVSHEEPEVKFNWYVDGVEVHNAKTKPREEQYNSTYRVVSVLTVLHQDWLNGKEYKCKVSNDALPKPIEETISKAKGQPREPQVYTLPPSRCELTKNQVSLSCAVKGFYPSDIAVEWESNGQPENNYKTTPPVLDSDGSFFLVSKLTVDKSRWQQGNVFSCSVMHEALHNHYTQKSLSLSP
light: DIQMTQSPSSLSASVGDRVTITCRASQDIHKYIAWYQQKPGQAPRLLIQYTSTLQPGVPSRFSGSGSGTDYTFTISSLQPEDIATYYCLQYEQLRTFGGGTKVEIKRTVAAPSVFIFPPSDEQLKSGTASVVCLLNNFYPREAKVQWKVDNALQSGNSQESVTEQDSKDSTYSLSSTLTLSKADYEKHKVYACEVTHQGLSSPVTKSFNRGEC
notes: Heterodimerized anti-epiregulin antibody; G236V in the Hl068 chain; also called H240-Kn120/H240-HI085/L73-k0
B2: the “Relative KD” value is 1.1 in the assay with FcgRIIaR [13]; 0.4 with FcgRIIb [14]; 0.9 with FcgRIIaH [15]; 0.1 with FcgRIIIaV [16]; 0.1 in the assay with FcgRIIIaF [17]. Also, the Kd stood at 19 nM in the assay with FcgRIIaR [18]; 390 nM with FcgRIIb [19]; 46 nM with FcgRIIaH [20]; 87 nM with FcgRIa [21]; 6.2 nM with FcgRIIIaV [22]; 23 nM with FcgRIIIaF [23].

The record behind these values is patent publication US20180155451A1 (published 2018).
